assay: soluble on expression in E. coli; label from the status in PepcDB or PDB records

Soluble on expression in E. coli, not soluble:
MIPMSETKNELEILLEKAATEPAHRPAFFRTLLESTVWVPGSAAEGEAIVEDSALDLQHWEKEDGTTVIPFFTSLEALQQAVEDEQAFVVMPARTLFEMTLGETLFLNAKLPTGKEFMPREISLLLAEEGSPLSTQEVLEGGESLILSEVAEPPSQMIDSLTTLFKTIKPVKRAFLCAIKEHADAQPNLLIGIEADGEIEEIIHAAGNVATDTLPGDEPIDICQVRKGEQGISHFITEHIAPFYERRWGGFLRDFKQNRII, MIPPEIRRSVLLQKAIKLALAGTLLTFASFSATAADPSSDTETPQPPDILLGPLFNDVQNAKLFPDQKTFADAIPNSDPLMILADYRMQRNQSGFDLRHFVDVNFTLPKAGEKYVPPAGQSLREHIDGLWPVLTRSTKNVEKWDSLLPLPESYVVPGGRFREIYYWDSYFTMLGLAESGHWDKVADMVANFGYEIDAWGHIPNGNRTYYLSRSQPPFFAFMVELLAQHEGDDALKEYLPQLQKEYAYWMEGVETLQPGQQNQRVVKLEDGSVLNRYWDDRDTPRPESWVEDIATAKSNPNRPATEIYRDLRSAAASGWDFSSRWMDNPQQLSTIRTTTIVPVDLNALLYQLEKTLARASAAAGDRAKASQYDALANARQKAIEMHLWNNKEGWYADYDLQNNKIRDQLTAAALFPLYVNAAAKDRAVKVAAAAQAHLLQPGGLATTSVKSGQQWDAPNGWAPLQWVAAEGLQNYGQDDVAMEVTWRFLTNVQHTYDREKKLVEKYDVSSTGTGGGGGEYPLQDGFGWTNGVTLKMLDLICPQEKPCDSVPSTRPASLSATPTKTPSAATQLEHHHHHH, MIQEPARVQAAPTFEATIREDNAKYQETAAGGTYSSPNCSCSQRRTRPTEPTKDSPTSTITTIPIVIDSKPNPRILLIRVPTSNRGSNSNNNSNSTRSGTEHRAPRTRIIRIPFLPGSVPTRPPSNQAAPATSSLVNPIGSARRCRISTYPTTGTLTSRSQPETVAGLPTTAMVNQTVPVLSSAPQTQTLAAMAGIQLTGADEPPSRRDVSGAMPTATVEEIDVPVFIDEYLQDIEATSSTCNSENGKEIFTETDILDFDINMFAEEDLIELEGKKTDPFSPAMDGMNNDNLDDDFLQLNDLLNEEETFDMSSMSGVGIDINQEQELDFINIFHNSQPTAMLTSSEDPYLATYSQATSTSSTTKFITEEPLLADMTSFDISYTSSQELGFGLVEDVSGSFASSCSDVAAAIPAPIQHPIITNIKRSAPAPVESQPTKRSRLMLQIKTELAPAFSPTTPEIINQLLNDDRFEAPTTSTSTSTSNTSISSSTHADIVEDLRSAEEETTTDFSAPNTPHSNYSASSSCAAPTCQTGYGGFLTAPTSPAYSTASTSVFSPSPASGISGKRKRGRPAKDHADGPDPVLMSSMKSEEERKAYQDRLKNNEASRVSRRKTKVREEEEKRAEDTLLAENLRLRARADEVASRERKFKKYLMERQRQKSTYVKQEQD, MIQHTMLKLYWANFTTAQLHHLTSTYPDFLSENVFHQHDMIKRWLTERNSERLWNKYERFKELKLMDIIKEMKKANVSFTTYFDDNYPSLCKEMYDYPYVIFYKGNPQFFNHSHSLAVIGSRNATQYTSQSLNYLFPSFRQLNMAIVSGLARGADSVAHQTALKYLLPTIGVLGFGHCYHYPKATLNLRTKVERNGLVISEYPPFSPISKHKFPERNRLISGLSRGVLITEAEERSGSQITIDCALEQNRNVYVLPGSMFNKMTKGNLRRINEGAQVVIDESSILYDYLF, MIQLIATPSNALVDEPVSIRATGLPPSQIVTIKATVKDENDNVFQSQAFYKTNEAGEVDLEKTPALGGDYVGVHPMGLFFSLKPKKAFHRLMKKDVMNSPLCICLDLYDSVNWLETVRIPSKASQRVQRWFVGPGVKREQIQEGRVRGALFLPPVEFRASLLASHGFAVLALAYFAYEDLPEKPQEVDLEYFEEAANFLLSHPKIQQPGIGVISTSKGAEIGLAMACYLKQVIATVCINGPTTITIFPLRYQDLVMTPIHPALERIQVHDSGALLFRYTTQYLHNKLNSQNILPVEKAQGKILFIVGENDECLDSKLHAQKAMDRLQRHGRSSGRMLAYPGAGHLIEPPYSPVCFVAWFPVLGQPMCFGGDLMAHAAAQEHSWREIQKFFRKHLLQSGSKL, MIQLNLPPYEHRIHQEDESMFIFDSIRRRYVALTPEEWVRQHFVHYLTDVLGYPADLIRNEAQLRIDRRRKRCDTVVYDTNLRPIVLCEYKAPTVSLTQKTMDQILCYNFIFRVPLLLLSNGLQHAACLVDYEQSGYVFLPEIPSYEELTTIIQSNQ, MIRHLEFKSRTRTDMIDITSAVQEQVRSAAVRNGVCHLFVLHTTAGITINEGADPAVQRDMVNFLDRLVPIDPYFTHAEGNSDAHIKSTLTGTSLTVFIVEGKLLLGSWQSIYLCEFDGPRHRRVAVKVVPDPLEHHHHHH, MIRVACVGITVMDRIYYVEGLPTESGKYVARNYTEVGGGPAATAAVAAARLGAQVDFIGRVGDDDAGNSLLAELESWGVNTRYTKRYNQAKSSQSAIMVDTKGERIIINYPSPDLLPDAEWLEEIDFSQWDVVLADVRWHDGAKKAFTLARQAGVMTVLDGDITPQDISELVALSDHAAFSEPGLARLTGVKEMASALKQAQTLTNGHVYVTQGSAGCDWLENGGRQHQPAFKVDVVDTTGAGDVFHGALAVALATSGDLAESVRFASGVAALKCTRPGGRAGIPDCDQTRSFLSLFV, MIRVKRLDHVQICIPFGAEDEARAFYTGVLGFQEIEKPESLKGNGGLWYKVGDIQLHIGAENRDGYNSKSHPAFEVEDVEAARRYLEEHGVATQDEKPIPGVKRFSFRDPFRNRIELLEKIM, MIRYWKLLFSLAVASVLLVGCGTKEHETTQAAKEEQTADDQKPSSDAPSSKNPSPSKEAKEQTSTKKNEEEQRAAGGGQPAASQPTISLSYQDGNQTVTKTATLQTSNNQHFSLYVLEGWTLDAEEPGADVLLHGDAFARIRLLSEGETNYEQLAQEHAQAVDANAARQQTNGLPKPFADAVWYTAQADGVTVHVIASAQPTPMLLTVHAPSNEDVLGAVLAMAATLQKQ, MISAFDIFKIGIGPSSSHTVGPMNAGKCFIDRLIDSGDLPRTTRITVDLYGSLSLTGKGHATDTAVIMGLAGNTPQDVNIDSIPAFIQEVARSSRLSVAGGAHVVDFPVADSIFFHAETLARHENGMRITAWNGQAPLLHKTYYSIGGGFIVEEERFGQSHDVEKSVPYDFHSASELLTLCERQGLSVSGLMMQNELALRSKEQIDAGFARIWQVMATGIERGMNTEGVLPGPLNVPRRAVALRRLLVSSDNLSRDPMNVIDWINMFALAVSEENAAGGRVVTAPTNGACGIIPAVLAYYDKFRRPVNANSIARYLLSAGAIGMLYKMNASISGAEVGCQGEVGVACSMAAAGLTELLGGSPAQVCIAAEIAMEHNLGLTCDPVAGQVQIPCIERNAINAVKAVNAARMALRRTSEPRVSLDKVIETMYETGKDMNDKYRETSRGGLAIKVVCG, MISGPFLHFDPTVPLQTVMIGHPATSPLSLPSSSSSPTVADPSNIHCRVCERRYDGSQHFGIDICRACAAFFRRSVAVKKTFVCRRGTNKCELNTVSRKTTCQKCRWMRCLLVGLNVDAVVGRRSPDHVKTTSRDESVKKEDEESDTGSEGKSCEDMDVSHPIEQFQQQISFSVHRPIPTIGNPNIYTTRASLINKVLINYNEFTKSRLDVELSLKHMQQDSKVFGSTGIPIVPATREIISEIYQKQFGLLHIFLKNTFDEYAECDVQEQKRICAMFYPVLWEIESCYWTYRNMPVQPEYETLMMCTQTTYIDSKNVRYWLGNTTGLNESDIQAVEARLENLLTKARNLVLEPMHKLIIKEFEFITLLALNIWAPRNHRGCVSEDRAEQVRDALFDDLHYLYCDGLKIDKYSSRMGEMMCLHTEVQNADMSSTIKNILFSDLNAYLYSI, MISKTSILLLGFACAAVGANYIESAIFKFDDSCEPLEEPRKPEVAKCYEPSTSLPKTLEEYRAMGYDWGEFVHDDKADQAPEGLDEVFTYPMVPFIGMSLLASKKF, MISNRILQTTVDGLKAISRVDLCIVDADKNVAAKTFDNVSECLADAISFIDSPAESQAVNGFQFFKVEDEGNLEYIIMARGTSDDVYMVGKLAAFQIQNLLVAYKERFDKDNFIKNLLLDNLLRVDMYTRAEKLHIETDVKRVVYIIETKHEKDTSALETVRTLFANKTRDFITAVDEKSIILVKEVKGNESYDELDKTADVIIDMLNTEAMSAAHVAYGTIVNDIREVSRSYKEAKMALDVGKIFYSNKNVVAYNRLGIGRLIYQLPIPLCQMFIKEIFEGKAPDDFDDETLSTINKFFENSLNVSETSRQLYIHRNTLVYRLDKIQKITGLDLRVFDDAITFKIALMVVKYMKYMESKDTF, MISPKKEITSSKYQKIAISVAQRIANGEYEVGEKLKSRTTIASTFNVSPETARKGLNILADLKILTLKHGSGAIVLSKERAIEFINQYESTHSIAVLKEKIRETINDQGKAMEKMAVLVNDFLMQSQSVSKQYPLAPYEIICNQDSEHFGKSIGVLNIWHQTGATIVAIEHAGQFIVSPGPYSVIEKGDHIYFVGDESVISRMKTFFNLRKGL, MITAIVFDVDDTIYDQQAPYRIAMEKCFPDFDMSVMNQAYIRFRHYSDVGFPRVMAGEWTTEYFRFWRCKETLLEFGYREIDEAAGVHFQEVYEHELENITMLDEMRMTLDFLKSKNVPMGIITNGPTEHQLKKVRKLGLYDYIDAKRVIVSQATGFQKPEKEIFNLAAEQFDMNPQTTLYVGDSYDNDIMGAFNGGWHSMWFNHRGRQLKPGTKPVYDVAIDNFEQLFGAVKVLFDLPDNKFIFDVNDKKNPILQMGINNGLMMAAERLLESNMSIDKVVILLRLTKQQEKVLRLKYAR

Soluble on expression in E. coli, soluble:
MIRMAQNNKELEKLAYEYQVLQAQAQILAQNLELLNLAKAEVQTVRETLENLKKIEEEKPEILVPIGAGSFLKGVIVDKNNAIVSVGSGYAVERSIDEAISFLEKRLKEYDEAIKKTQGALAELEKRIGEVARKAQEVQQKQSMTSFKVKK, MISPELVKEALKKKKVRSEEAFGLEYLRFNDDYKDIPRGTAIFKDFIIWGYPHIGRIFLLETGLREQFEAPFWVEEKVDGYNTRIFKYGDNYYALSRGGFICPFTTDRLPDLIDLRILDENPDLVICAEVAGPENPYIEESPPYVKEDVQLFVFDFMKKNEQGFLSQEEKMELIEKYNLPHVEILGRFTASEEGIKKIKEILKRFNEEGREGVVFKEDSERNKRAKYITSYANLMDIKTNAKNMLQLPPEYYTNRILRLVLFMYEEGLKTTEHLYEELGRAFIDGLFQAIEQFEKEHKVYKTFTCKFRKKENAIALLELLSKTSKHIQVKERRLEKEGDYWRLEFDKVFLNMTGLLGHLLSGGIVYD, MITDEHIELFLAQAHRYGDAKLMLCSSGNLSWRIGEEALISGTGSWVPTLAKEKVSICNIASGTPTNGVKPSMESTFHLGVLRERPDVNVVLHFQSEYATAISCMKNKPTNFNVTAEIPCHVGSEIPVIPYYRPGSPELAKAVVEAMLKHNSVLLTNHGQVVCGKDFDQVYERATFFEMACRIIVQSGGDYSVLTPEEIEDLEIYVLGKKTK, MITEKRHELILTELSKQDFLTLQELIERTGCSASTIRRDLSKLQKFGKLKRVHGGATLNQSSALEPNLADKRSTNLREKQEIGRLAASQIENRDCVFLDAGSTTLEMIPYIKASDIIVVTNGLTHVEELLKHGIRTLIIGGEVKSTTFATVGASALETLRRYRFDKVFLGMNGIDLKYGLTTPDEQEAIIKHHAMQLGTQVYVLIDHDKYEKVYFAHVPLEEGVSIITSKKAQSLKQFHLFAGQYNFIGGTLLEHHHHHH

Reference: the DeepSol protein solubility set
